Data reported in paper PMC10786891, “Massively parallel profiling of RNA-targeting CRISPR-Cas13d”.

Target: T1, EsCas13d, nuclease-dead (Eubacterium siraeum, UniProt B0MS50, R295A;H300A;R849A;H854A)
T1 sequence: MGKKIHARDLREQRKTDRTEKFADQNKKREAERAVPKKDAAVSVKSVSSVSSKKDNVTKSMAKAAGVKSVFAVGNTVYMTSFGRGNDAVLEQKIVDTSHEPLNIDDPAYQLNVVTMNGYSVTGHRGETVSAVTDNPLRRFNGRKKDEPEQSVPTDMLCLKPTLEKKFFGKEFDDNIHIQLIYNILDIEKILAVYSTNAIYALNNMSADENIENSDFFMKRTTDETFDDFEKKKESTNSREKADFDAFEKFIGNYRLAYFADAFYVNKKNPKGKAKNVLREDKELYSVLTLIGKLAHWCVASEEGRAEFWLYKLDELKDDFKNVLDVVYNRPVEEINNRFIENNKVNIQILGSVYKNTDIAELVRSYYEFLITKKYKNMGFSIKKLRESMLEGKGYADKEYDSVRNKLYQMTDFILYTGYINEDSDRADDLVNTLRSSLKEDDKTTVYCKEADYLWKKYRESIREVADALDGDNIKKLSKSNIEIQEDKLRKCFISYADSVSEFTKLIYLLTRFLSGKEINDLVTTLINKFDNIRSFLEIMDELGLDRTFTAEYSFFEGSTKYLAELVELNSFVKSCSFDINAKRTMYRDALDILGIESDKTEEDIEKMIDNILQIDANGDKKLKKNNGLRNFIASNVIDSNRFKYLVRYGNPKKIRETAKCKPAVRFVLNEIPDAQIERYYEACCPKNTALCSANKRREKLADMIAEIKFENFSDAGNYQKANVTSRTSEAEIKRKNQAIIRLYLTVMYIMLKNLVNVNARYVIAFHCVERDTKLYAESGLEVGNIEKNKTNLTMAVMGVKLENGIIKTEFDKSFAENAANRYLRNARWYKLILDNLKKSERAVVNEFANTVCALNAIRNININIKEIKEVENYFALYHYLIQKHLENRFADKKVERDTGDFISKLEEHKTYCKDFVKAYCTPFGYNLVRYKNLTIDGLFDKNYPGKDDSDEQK
Test: crRNA (strand 1, pre-loaded); Mg2+; 40 mM Tris-HCl pH 7.5, 150 mM NaCl, 6 mM MgCl2, 1 mM DTT, 0.1% Tween-20, 0.2 mg/ml BSA; 25 C; 10 min per concentration, then washed
Settings: tags: His6-TwinStrep-SUMO cleaved; N-terminal SNAP kept (SNAP-Surface 488); label: 3' end held by stalled T7 RNA polymerase

Row | Binder | Kd [nM]
1 | target 1 MT 5'PFS CUU 3'PFS UAG (mixed) RNA 1: CACCCGUGCAAAAAUGCAGGGGUCUAAAACUGAGCGGAUAACCUCUCUAUGG RNA 2: GGGAAUGGAUCCACAUCUACGAAUUCCUUCCAUAGAGAGGUUAUCCGCUCAUAGAGAUCGGAAGAGCACACGU | ~90
2 | target 1 insC 3' of 11,insG 3' of 9 (mixed) RNA 1: CACCCGUGCAAAAAUGCAGGGGUCUAAAACUGAGCGGAUAACCUCUCUAUGG RNA 2: GGGAAUGGAUCCACAUCUACGAAUUCGUACCAUAGAGAGGUCUAGUCCGCUCACCGAGAUCGGAAGAGCACACGU | 31.8 ± 2
3 | target 1 MT 5'PFS GAA 3'PFS CGA (mixed) RNA 1: CACCCGUGCAAAAAUGCAGGGGUCUAAAACUGAGCGGAUAACCUCUCUAUGG RNA 2: GGGAAUGGAUCCACAUCUACGAAUUCGAACCAUAGAGAGGUUAUCCGCUCACGAAGAUCGGAAGAGCACACGU | ~85
4 | target 1 MT 5'PFS GUG 3'PFS ACC (mixed) RNA 1: CACCCGUGCAAAAAUGCAGGGGUCUAAAACUGAGCGGAUAACCUCUCUAUGG RNA 2: GGGAAUGGAUCCACAUCUACGAAUUCGUGCCAUAGAGAGGUUAUCCGCUCAACCAGAUCGGAAGAGCACACGU | 12.4 ± 1.1
5 | target 1 G17C (mixed) RNA 1: CACCCGUGCAAAAAUGCAGGGGUCUAAAACUGAGCGGAUAACCUCUCUAUGG RNA 2: GGGAAUGGAUCCACAUCUACGAAUUCGUACCAUACAGAGGUUAUCCGCUCACCGAGAUCGGAAGAGCACACGU | 40 ± 8
6 | target 1 MT 5'PFS GUG 3'PFS ACA (mixed) RNA 1: CACCCGUGCAAAAAUGCAGGGGUCUAAAACUGAGCGGAUAACCUCUCUAUGG RNA 2: GGGAAUGGAUCCACAUCUACGAAUUCGUGCCAUAGAGAGGUUAUCCGCUCAACAAGAUCGGAAGAGCACACGU | 24.1 ± 2.35
7 | target 1 MT 5'PFS GUG 3'PFS GAG (mixed) RNA 1: CACCCGUGCAAAAAUGCAGGGGUCUAAAACUGAGCGGAUAACCUCUCUAUGG RNA 2: GGGAAUGGAUCCACAUCUACGAAUUCGUGCCAUAGAGAGGUUAUCCGCUCAGAGAGAUCGGAAGAGCACACGU | 18.8 ± 2.25
8 | target 1 MT 5'PFS AGA 3'PFS UAC (mixed) RNA 1: CACCCGUGCAAAAAUGCAGGGGUCUAAAACUGAGCGGAUAACCUCUCUAUGG RNA 2: GGGAAUGGAUCCACAUCUACGAAUUCAGACCAUAGAGAGGUUAUCCGCUCAUACAGAUCGGAAGAGCACACGU | 40 ± 17
9 | target 1 MT 5'PFS GGG 3'PFS UGU (mixed) RNA 1: CACCCGUGCAAAAAUGCAGGGGUCUAAAACUGAGCGGAUAACCUCUCUAUGG RNA 2: GGGAAUGGAUCCACAUCUACGAAUUCGGGCCAUAGAGAGGUUAUCCGCUCAUGUAGAUCGGAAGAGCACACGU | 43 ± 7.5
10 | target 1 MT 5'PFS CCG 3'PFS ACU (mixed) RNA 1: CACCCGUGCAAAAAUGCAGGGGUCUAAAACUGAGCGGAUAACCUCUCUAUGG RNA 2: GGGAAUGGAUCCACAUCUACGAAUUCCCGCCAUAGAGAGGUUAUCCGCUCAACUAGAUCGGAAGAGCACACGU | ~4.9
11 | target 1 MT 5'PFS GGU 3'PFS UUC (mixed) RNA 1: CACCCGUGCAAAAAUGCAGGGGUCUAAAACUGAGCGGAUAACCUCUCUAUGG RNA 2: GGGAAUGGAUCCACAUCUACGAAUUCGGUCCAUAGAGAGGUUAUCCGCUCAUUCAGAUCGGAAGAGCACACGU | 36 ± 6
12 | target 1 MT 5'PFS GGG 3'PFS UGC (mixed) RNA 1: CACCCGUGCAAAAAUGCAGGGGUCUAAAACUGAGCGGAUAACCUCUCUAUGG RNA 2: GGGAAUGGAUCCACAUCUACGAAUUCGGGCCAUAGAGAGGUUAUCCGCUCAUGCAGAUCGGAAGAGCACACGU | 12.8 ± 1.3
13 | target 1 MT 5'PFS UCG 3'PFS UGC (mixed) RNA 1: CACCCGUGCAAAAAUGCAGGGGUCUAAAACUGAGCGGAUAACCUCUCUAUGG RNA 2: GGGAAUGGAUCCACAUCUACGAAUUCUCGCCAUAGAGAGGUUAUCCGCUCAUGCAGAUCGGAAGAGCACACGU | ~50
14 | target 1 MT 5'PFS CGC 3'PFS UCG (mixed) RNA 1: CACCCGUGCAAAAAUGCAGGGGUCUAAAACUGAGCGGAUAACCUCUCUAUGG RNA 2: GGGAAUGGAUCCACAUCUACGAAUUCCGCCCAUAGAGAGGUUAUCCGCUCAUCGAGAUCGGAAGAGCACACGU | ~76
15 | target 1 G5U,A14G (mixed) RNA 1: CACCCGUGCAAAAAUGCAGGGGUCUAAAACUGAGCGGAUAACCUCUCUAUGG RNA 2: GGGAAUGGAUCCACAUCUACGAAUUCGUACCAUAGAGGGGUUAUCCUCUCACCGAGAUCGGAAGAGCACACGU | 68 ± 7
16 | target 1 insC 3' of 9,insA 3' of 5 (mixed) RNA 1: CACCCGUGCAAAAAUGCAGGGGUCUAAAACUGAGCGGAUAACCUCUCUAUGG RNA 2: GGGAAUGGAUCCACAUCUACGAAUUCGUACCAUAGAGAGGUUACUCCGACUCACCGAGAUCGGAAGAGCACACGU | 5.89 ± 0.35
17 | target 1 MT 5'PFS UGG 3'PFS CAU (mixed) RNA 1: CACCCGUGCAAAAAUGCAGGGGUCUAAAACUGAGCGGAUAACCUCUCUAUGG RNA 2: GGGAAUGGAUCCACAUCUACGAAUUCUGGCCAUAGAGAGGUUAUCCGCUCACAUAGAUCGGAAGAGCACACGU | 80 ± 32
18 | target 1 MT 5'PFS GUG 3'PFS ACU (mixed) RNA 1: CACCCGUGCAAAAAUGCAGGGGUCUAAAACUGAGCGGAUAACCUCUCUAUGG RNA 2: GGGAAUGGAUCCACAUCUACGAAUUCGUGCCAUAGAGAGGUUAUCCGCUCAACUAGAUCGGAAGAGCACACGU | 11.5 ± 0.75
19 | target 1 MT 5'PFS GUG 3'PFS GAA (mixed) RNA 1: CACCCGUGCAAAAAUGCAGGGGUCUAAAACUGAGCGGAUAACCUCUCUAUGG RNA 2: GGGAAUGGAUCCACAUCUACGAAUUCGUGCCAUAGAGAGGUUAUCCGCUCAGAAAGAUCGGAAGAGCACACGU | 12.9 ± 1.4
20 | target 1 MT 5'PFS UAC 3'PFS UCG (mixed) RNA 1: CACCCGUGCAAAAAUGCAGGGGUCUAAAACUGAGCGGAUAACCUCUCUAUGG RNA 2: GGGAAUGGAUCCACAUCUACGAAUUCUACCCAUAGAGAGGUUAUCCGCUCAUCGAGAUCGGAAGAGCACACGU | 21.3 ± 8.05
21 | target 1 MT 5'PFS AGA 3'PFS UAG (mixed) RNA 1: CACCCGUGCAAAAAUGCAGGGGUCUAAAACUGAGCGGAUAACCUCUCUAUGG RNA 2: GGGAAUGGAUCCACAUCUACGAAUUCAGACCAUAGAGAGGUUAUCCGCUCAUAGAGAUCGGAAGAGCACACGU | 35.5 ± 14
22 | target 1 MT 5'PFS GUG 3'PFS GAU (mixed) RNA 1: CACCCGUGCAAAAAUGCAGGGGUCUAAAACUGAGCGGAUAACCUCUCUAUGG RNA 2: GGGAAUGGAUCCACAUCUACGAAUUCGUGCCAUAGAGAGGUUAUCCGCUCAGAUAGAUCGGAAGAGCACACGU | 15.4 ± 1.95
23 | target 1 MT 5'PFS UAC 3'PFS UCC (mixed) RNA 1: CACCCGUGCAAAAAUGCAGGGGUCUAAAACUGAGCGGAUAACCUCUCUAUGG RNA 2: GGGAAUGGAUCCACAUCUACGAAUUCUACCCAUAGAGAGGUUAUCCGCUCAUCCAGAUCGGAAGAGCACACGU | 12.5 ± 5
24 | target 1 MT 5'PFS AGA 3'PFS UAA (mixed) RNA 1: CACCCGUGCAAAAAUGCAGGGGUCUAAAACUGAGCGGAUAACCUCUCUAUGG RNA 2: GGGAAUGGAUCCACAUCUACGAAUUCAGACCAUAGAGAGGUUAUCCGCUCAUAAAGAUCGGAAGAGCACACGU | 45 ± 20
25 | target 1 MT 5'PFS GGG 3'PFS UGA (mixed) RNA 1: CACCCGUGCAAAAAUGCAGGGGUCUAAAACUGAGCGGAUAACCUCUCUAUGG RNA 2: GGGAAUGGAUCCACAUCUACGAAUUCGGGCCAUAGAGAGGUUAUCCGCUCAUGAAGAUCGGAAGAGCACACGU | 24.5 ± 4
26 | target 1 MT 5'PFS GUG 3'PFS GAC (mixed) RNA 1: CACCCGUGCAAAAAUGCAGGGGUCUAAAACUGAGCGGAUAACCUCUCUAUGG RNA 2: GGGAAUGGAUCCACAUCUACGAAUUCGUGCCAUAGAGAGGUUAUCCGCUCAGACAGAUCGGAAGAGCACACGU | 17.2 ± 2.9
27 | target 1 MT 5'PFS GCU 3'PFS CUG (mixed) RNA 1: CACCCGUGCAAAAAUGCAGGGGUCUAAAACUGAGCGGAUAACCUCUCUAUGG RNA 2: GGGAAUGGAUCCACAUCUACGAAUUCGCUCCAUAGAGAGGUUAUCCGCUCACUGAGAUCGGAAGAGCACACGU | 92 ± 34
28 | target 1 MT 5'PFS GUG 3'PFS ACG (mixed) RNA 1: CACCCGUGCAAAAAUGCAGGGGUCUAAAACUGAGCGGAUAACCUCUCUAUGG RNA 2: GGGAAUGGAUCCACAUCUACGAAUUCGUGCCAUAGAGAGGUUAUCCGCUCAACGAGAUCGGAAGAGCACACGU | 15.4 ± 1
